Test results from publication PMC6689989.

Assays:
NCC(=O)O = assay: purified protein; settings: Na+ primary substrate (S1) binding site, near F259 and I359
C[C@H](N)C(=O)O = assay: purified protein; settings: Na+ primary substrate (S1) binding site, W259

Substance LeuT (Aquifex aeolicus VF5) has a Km (NCC(=O)O) of 1.2 ± 0.2 µM.
LeuT (Aquifex aeolicus VF5; F259W) gave a Km (C[C@H](N)C(=O)O) of 3.7 ± 0.9 µM.
